Source: publication PMC9352680, “A comprehensive thermodynamic model for RNA binding by the Saccharomyces cerevisiae Pumilio protein PUF4”

T1: PUF4 RNA-binding domain (Saccharomyces cerevisiae, UniProt P25339 537-888)
T1 sequence: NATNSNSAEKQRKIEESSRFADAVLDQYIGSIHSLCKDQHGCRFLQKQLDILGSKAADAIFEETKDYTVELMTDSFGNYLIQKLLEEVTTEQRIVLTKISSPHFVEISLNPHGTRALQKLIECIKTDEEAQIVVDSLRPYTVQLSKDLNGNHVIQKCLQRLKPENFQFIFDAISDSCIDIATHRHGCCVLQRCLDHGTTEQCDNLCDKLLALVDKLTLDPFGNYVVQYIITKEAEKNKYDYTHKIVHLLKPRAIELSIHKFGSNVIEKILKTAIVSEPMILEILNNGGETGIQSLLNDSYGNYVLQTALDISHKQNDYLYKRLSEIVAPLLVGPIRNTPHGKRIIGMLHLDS


Target: T1, PUF4 RNA-binding domain
Assay: Mg; RNA-MaP; 20 mM Na-HEPES pH 7.4, 30 mM KOAc, 0.75 mM MgCl2, 0.1% Tween-20, 5% glycerol, 0.1 mg/mL BSA, 2 mM DTT; 25 C; 0.0125-409.6 nM protein
Conditions: tags: N-His6-TEV cleaved; C-SNAP kept, Cy3B-labelled; label: tethered on chip by stalled RNA polymerase

| Binder | Kd [nM] |
| --- | --- |
| ACAAACUCUAUAUAUUAUCACAAAC (ssRNA) [Id_ii_S3_P4E.3_K4.2_C4.2_[C-2T]_[T-1C]_H4.2_A4.1_F4.1_T4.2_[G10T]_[T11C]] | 16.3 |
| ACAAACGGUAUAUAUUAAGACAAAC (ssRNA) [Id_ii_S3_P4E.3_K4.2_C4.2_[C-2G]_[T-1G]_H4.2_A4.1_F4.1_T4.2_[G10A]_[T11G]] | 48.8 |
| UCUCUUUGUAUUCUUGUCUCUU (ssRNA) [Ib_S1_P5E.1_K5.1_C5.1_H5.1_A5.1_[A7C]_F5.1_[A10G]_T5.1] | 20.4 |
| UCUCUUUGUAUGAUUUUCUCUU (ssRNA) [Ib_S1_P5E.1_K5.1_C5.1_H5.1_A5.1_[T6G]_F5.1_[A10T]_T5.1] | 39.5 |
| ACAAACGAUAUAUAUUAACACAAAC (ssRNA) [Id_ii_S3_P4E.3_K4.2_C4.2_[C-2G]_[T-1A]_H4.2_A4.1_F4.1_T4.2_[G10A]_[T11C]] | 52.9 |
| ACAAACACUAUAUAUUAUGACAAAC (ssRNA) [Id_ii_S3_P4E.3_K4.2_C4.2_[C-2A]_[T-1C]_H4.2_A4.1_F4.1_T4.2_[G10T]_[T11G]] | 16.6 |
| ACAAACUUUAUAUAUUAUCACAAAC (ssRNA) [Id_ii_S3_P4E.3_K4.2_C4.2_[C-2T]_H4.2_A4.1_F4.1_T4.2_[G10T]_[T11C]] | 16.5 |
| ACAAACAGUAUAUAUUAGGACAAAC (ssRNA) [Id_ii_S3_P4E.3_K4.2_C4.2_[C-2A]_[T-1G]_H4.2_A4.1_F4.1_T4.2_[T11G]] | 20.3 |
| ACAAACAUUAUAUAUUACGACAAAC (ssRNA) [Id_ii_S3_P4E.3_K4.2_C4.2_[C-2A]_H4.2_A4.1_F4.1_T4.2_[G10C]_[T11G]] | 21.4 |
| ACAAACAGUAUAUAUUAUCACAAAC (ssRNA) [Id_ii_S3_P4E.3_K4.2_C4.2_[C-2A]_[T-1G]_H4.2_A4.1_F4.1_T4.2_[G10T]_[T11C]] | 25.5 |
| ACAAACACUAUAUAUUAUAACAAAC (ssRNA) [Id_ii_S3_P4E.3_K4.2_C4.2_[C-2A]_[T-1C]_H4.2_A4.1_F4.1_T4.2_[G10T]_[T11A]] | 20.5 |
| ACAAACAUUAUAUAUUACAACAAAC (ssRNA) [Id_ii_S3_P4E.3_K4.2_C4.2_[C-2A]_H4.2_A4.1_F4.1_T4.2_[G10C]_[T11A]] | 27.7 |
| ACAAACUUUAUAUAUUACGACAAAC (ssRNA) [Id_ii_S3_P4E.3_K4.2_C4.2_[C-2T]_H4.2_A4.1_F4.1_T4.2_[G10C]_[T11G]] | 19.4 |
| UCUCUUUGUACUAUUAUCUCUU (ssRNA) [Ie_S1_P4E.1_K4.1_C4.1_H4.1_[+4C]_A4.1_F4.1_T4.1] | 4.49 |
| ACAAACGCUAUAUAUUAUCACAAAC (ssRNA) [Id_ii_S3_P4E.3_K4.2_C4.2_[C-2G]_[T-1C]_H4.2_A4.1_F4.1_T4.2_[G10T]_[T11C]] | 20.1 |
| ACAAACAGUAUAUAUUAACACAAAC (ssRNA) [Id_ii_S3_P4E.3_K4.2_C4.2_[C-2A]_[T-1G]_H4.2_A4.1_F4.1_T4.2_[G10A]_[T11C]] | 38.8 |

| Binder | Kd [nM] |
| --- | --- |
| ACAAACUUUAUAUAUUAACACAAAC (ssRNA) [Id_ii_S3_P4E.3_K4.2_C4.2_[C-2T]_H4.2_A4.1_F4.1_T4.2_[G10A]_[T11C]] | 29.5 |
| ACAAACCUACACUAUAGCACAAAC (ssRNA) [Id_ii_S3_P3E.4_K3.3_C3.2_H3.3_A3.1_F3.1_T3.2_[T9G]_[A10C]] | 2260 |
| ACAAACGAUAUAUAUUAUGACAAAC (ssRNA) [Id_ii_S3_P4E.3_K4.2_C4.2_[C-2G]_[T-1A]_H4.2_A4.1_F4.1_T4.2_[G10T]_[T11G]] | 48.6 |
| ACAAACAAUAUAUAUUACUACAAAC (ssRNA) [Id_ii_S3_P4E.3_K4.2_C4.2_[C-2A]_[T-1A]_H4.2_A4.1_F4.1_T4.2_[G10C]] | 28.2 |
| ACAAACGUUAUAUAUUAUUACAAAC (ssRNA) [Id_ii_S3_P4E.3_K4.2_C4.2_[C-2G]_H4.2_A4.1_F4.1_T4.2_[G10T]] | 31.6 |
| ACAAACACUAUAUAUUACCACAAAC (ssRNA) [Id_ii_S3_P4E.3_K4.2_C4.2_[C-2A]_[T-1C]_H4.2_A4.1_F4.1_T4.2_[G10C]_[T11C]] | 33.5 |
| ACAAACGAUAUAUAUUAAAACAAAC (ssRNA) [Id_ii_S3_P4E.3_K4.2_C4.2_[C-2G]_[T-1A]_H4.2_A4.1_F4.1_T4.2_[G10A]_[T11A]] | 74.6 |
| UCUCUUUGUAUAAUUCUCUCUU (ssRNA) [Ib_S1_P5E.1_K5.1_C5.1_H5.1_A5.1_[T6A]_F5.1_[A10C]_T5.1] | 10.6 |
| ACAAACCCACACUAUAAGACAAAC (ssRNA) [Id_ii_S3_P3E.4_K3.3_C3.2_[T-1C]_H3.3_A3.1_F3.1_T3.2_[T9A]_[A10G]] | > 2300 |
| ACAAACGAUAUAUAUUACAACAAAC (ssRNA) [Id_ii_S3_P4E.3_K4.2_C4.2_[C-2G]_[T-1A]_H4.2_A4.1_F4.1_T4.2_[G10C]_[T11A]] | 50.4 |
| ACAAACACUAUAUAUUAUCACAAAC (ssRNA) [Id_ii_S3_P4E.3_K4.2_C4.2_[C-2A]_[T-1C]_H4.2_A4.1_F4.1_T4.2_[G10T]_[T11C]] | 17.7 |
| ACAAACAAUAUAUAUUACGACAAAC (ssRNA) [Id_ii_S3_P4E.3_K4.2_C4.2_[C-2A]_[T-1A]_H4.2_A4.1_F4.1_T4.2_[G10C]_[T11G]] | 43.6 |
| ACAAACGAUAUAUAUUAUAACAAAC (ssRNA) [Id_ii_S3_P4E.3_K4.2_C4.2_[C-2G]_[T-1A]_H4.2_A4.1_F4.1_T4.2_[G10T]_[T11A]] | 41.7 |
| ACAAACGAUAUAUAUUACCACAAAC (ssRNA) [Id_ii_S3_P4E.3_K4.2_C4.2_[C-2G]_[T-1A]_H4.2_A4.1_F4.1_T4.2_[G10C]_[T11C]] | 53.1 |
| UCUCUUUGUAAUAUUUUCUCUU (ssRNA) [Ib_S1_P5E.1_K5.1_C5.1_H5.1_A5.1_[T5A]_F5.1_[A10T]_T5.1] | 15 |
